# Reference: patent US5650488A, “Polypeptide inhibitor of the replication of HSV” (British Technology Group Limited, priority 1991, dated 1997)
# Molecular target: T1, TRF/Vmw 65/CFF complex (Homo sapiens, UniProt P51610)
# T1 construct: A nuclear extract of HeLa cells was prepared; from tissue; host or cells: HeLa cell nuclear extract (TRF, CFF)
# Assay: Peptide inhibition of quaternary complex assembly (gel retardation with HeLa nuclear extract, purified Vmw 65 and 32P-labelled TAATGARAT probe)
# Format: biochemical, HSV-1
# Design: key to Level of Inhibition: "+++" indicates a high level inhibition of complex formation; "++" indicates a lower level and so on; "-" indicates no inhibition of complex formation
# Description: A nuclear extract of HeLa cells was prepared exactly as described by Dignam et al., Nucl. Acids. Res. 11 1475-1489, (1983) (This is a standard protocol for the preparation of extracts containing cellular DNA binding proteins). Polypeptides from Vmw 65 amino acids were synthesised by Cambridge Research Biochemicals Ltd., Cambridge, UK, under contract, in accordance with the sequence set forth above. 1 μl volumes of phosphate buffered saline containing increasing amounts (100 ng, 500 ng, 1 μg, 2.5 μg, 5μg) of the polypeptide (amino acids 360-367) was added to a standard amount of HeLa cell nuclear extract (1 μl extract per 2 μg polypeptide). After incubation at 20° C. for 30 minutes a 1 μl sample of Vmw 65 protein, purified as described by P. O'Hare et al., EMBO J. 7: 4231-4238 (1988) was added to the extract polypeptide mixtures and incubation continued for a further 5 minutes in a buffer containing 25 mM HEPES pH 7.9, 1 mM EDTA, 5 mM DTT, 100 mM KCl, 0.05% NP40 10% glycerol, and 2 μg of salmon sperm DNA. A ^32 P radioactively labelled probe present in excess and encompassing nucleotides -171 to -149 (numbered starting upstream of the site of mRNA transcription: the TAATGARAT sequence is at -162 to -154) of the immediate-early IE110K gene of HSV-1 was then added and incubation continued for a further 25 minutes. […]
# T1 sequence (P51610 whole entry, one chain of several): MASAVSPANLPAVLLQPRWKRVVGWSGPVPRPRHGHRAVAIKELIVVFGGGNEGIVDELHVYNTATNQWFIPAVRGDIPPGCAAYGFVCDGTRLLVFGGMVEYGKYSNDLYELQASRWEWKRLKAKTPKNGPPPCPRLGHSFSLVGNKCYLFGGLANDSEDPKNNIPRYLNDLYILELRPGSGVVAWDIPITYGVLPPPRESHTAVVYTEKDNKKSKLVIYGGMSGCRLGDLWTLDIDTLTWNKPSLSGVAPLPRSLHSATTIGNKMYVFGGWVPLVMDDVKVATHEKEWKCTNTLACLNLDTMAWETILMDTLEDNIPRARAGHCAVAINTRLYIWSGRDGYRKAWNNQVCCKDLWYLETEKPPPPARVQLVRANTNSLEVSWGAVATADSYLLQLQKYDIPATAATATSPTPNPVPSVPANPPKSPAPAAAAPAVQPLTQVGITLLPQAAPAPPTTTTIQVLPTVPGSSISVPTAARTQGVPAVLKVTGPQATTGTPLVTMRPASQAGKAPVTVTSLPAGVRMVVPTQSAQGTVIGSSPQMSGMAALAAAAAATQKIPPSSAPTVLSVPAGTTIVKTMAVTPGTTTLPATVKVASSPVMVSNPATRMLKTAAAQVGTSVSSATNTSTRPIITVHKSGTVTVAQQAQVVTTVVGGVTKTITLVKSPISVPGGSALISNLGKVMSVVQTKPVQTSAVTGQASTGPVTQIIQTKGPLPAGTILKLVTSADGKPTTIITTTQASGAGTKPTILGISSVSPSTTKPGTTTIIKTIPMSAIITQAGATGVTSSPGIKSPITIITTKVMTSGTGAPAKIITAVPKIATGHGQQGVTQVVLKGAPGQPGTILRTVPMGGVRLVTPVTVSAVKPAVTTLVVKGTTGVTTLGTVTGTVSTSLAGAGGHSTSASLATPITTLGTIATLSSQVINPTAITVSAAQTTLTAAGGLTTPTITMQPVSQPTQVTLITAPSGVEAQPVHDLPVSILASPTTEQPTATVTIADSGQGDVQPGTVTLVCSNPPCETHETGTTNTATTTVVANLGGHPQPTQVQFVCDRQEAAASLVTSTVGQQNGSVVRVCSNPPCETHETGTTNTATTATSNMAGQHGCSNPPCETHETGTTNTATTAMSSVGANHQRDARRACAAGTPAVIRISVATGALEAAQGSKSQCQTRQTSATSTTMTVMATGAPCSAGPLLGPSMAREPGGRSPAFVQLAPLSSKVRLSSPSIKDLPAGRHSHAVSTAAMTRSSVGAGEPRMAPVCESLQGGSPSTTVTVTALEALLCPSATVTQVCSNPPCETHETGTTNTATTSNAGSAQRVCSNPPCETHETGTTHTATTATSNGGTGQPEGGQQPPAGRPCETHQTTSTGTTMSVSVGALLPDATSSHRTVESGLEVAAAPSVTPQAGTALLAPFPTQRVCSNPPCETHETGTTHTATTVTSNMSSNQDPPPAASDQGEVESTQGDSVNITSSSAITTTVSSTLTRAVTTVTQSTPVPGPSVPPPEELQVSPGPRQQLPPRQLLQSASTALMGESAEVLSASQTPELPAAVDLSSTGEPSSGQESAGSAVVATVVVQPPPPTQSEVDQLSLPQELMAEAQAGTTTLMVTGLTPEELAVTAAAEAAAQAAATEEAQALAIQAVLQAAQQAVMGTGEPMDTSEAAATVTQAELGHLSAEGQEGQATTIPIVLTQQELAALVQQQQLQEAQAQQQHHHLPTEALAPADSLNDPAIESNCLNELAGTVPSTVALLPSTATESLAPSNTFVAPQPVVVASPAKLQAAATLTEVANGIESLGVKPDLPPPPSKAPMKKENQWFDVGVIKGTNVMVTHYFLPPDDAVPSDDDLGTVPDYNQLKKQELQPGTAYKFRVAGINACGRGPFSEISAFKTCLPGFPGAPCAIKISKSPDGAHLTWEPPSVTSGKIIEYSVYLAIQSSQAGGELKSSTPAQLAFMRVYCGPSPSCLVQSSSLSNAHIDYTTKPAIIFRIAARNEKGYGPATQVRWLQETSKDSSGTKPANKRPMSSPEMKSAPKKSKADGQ
substance,measurement,setting,value
355-367: polypeptide of region 355-367 of Vmw 65; 360-367 inhibitory region with 355-359 flanking stabilizing region,Level of Inhibition,"inhibition of complex formation, experiment of Example 1 repeated with various Vmw-65 polypeptides",+++
same,inhibiting complex formation (result in words),summary of the Table,effective
